From patent US20180016322A1 (INSERM INSTITUT NATIONAL DE LA SANTE ET DE LA RECHERCHE …, published 2018)

Target: synthetic MBP-HIS-EBOV-GP fusion peptide (Zaire Ebolavirus (EBOV), UniProt P0AEX9 27-392 = MBP)
Assay: ELISA on coated recombinant fusion protein

B1: murine monoclonal antibody 3327 (antibody, V domains shown)
VH: EVQLQESGPSLGKPSQTLSLTCSVTGDSITSGYWNWIRKFPGSKLEYMGYITSSGSTYYNPSLKSRISITRDTSKNQYYLQLNSVTSEDTATYYCAREGARSSGGWYFDVWGAGTTVTVSS
VL: DIVMTQSHKFMSTSVGDRVSITCKASQDVSSAVVWYQQKPGQSPKLLIYWASTRHTGVPDRFTGSGSGTDYTLTISSVQAEDLALYYCQQHYSTPTFGGGTKLEIKR
B1: no binding.
